This note sets out measurements from article PMC5626764 (Nature Communications, 2017).

As a reminder, the Kd is the equilibrium constant for the complex coming apart. A low value points to tighter binding. The term stoichiometry N denotes a count of units in the complex or per binding partner.

B2: Wildtype NiV G ectodomain (Nipah virus attachment glycoprotein G, residues 71-602, N-terminal His6-tag) (domain or fragment)
chain: QNYTRSTDNQAVIKDALQGIQQQIKGLADKIGTEIGPKVSLIDTSSTITIPANIGLLGSKISQSTASINENVNEKCKFTLPPLKIHECNISCPNPLPFREYRPQTEGVSNLVGLPNNICLQKTSNQILKPKLISYTLPVVGQSGTCITDPLLAMDEGYFAYSHLERIGSCSRGVSKQRIIGVGEVLDRGDEVPSLFMTNVWTPPNPNTVYHCSAVYNNEFYYVLCAVSTVGDPILNSTYWSGSLMMTRLAVKPKSNGGGYNQHQLALRSIEKGRYDKVMPYGPSGIKQGDTLYFPAVGFLVRTEFKYNDSNCPITKCQYSKPENCRLSMGIRPNSHYILRSGLLKYNLSDGENPKVVFIEISDQRLSIGSPSKIYDSLGQPVFYQASFSWDTMIKFGDVLTVNPLVVNWRNNTVISRPGQSQCPRFNTCPEICWEGVYNDAFLIDRINWISAGVFLDSNQTAENPVFTVFKDNEILYRAQLASEDTNAQKTITNCFLLKNKIWCISLVEIYDTGDNVIRPKLFAVKIPEQCT

For series [1], the target named is B2. Put plainly: ELISA. The note with it: both partners purified. For orientation: ELISA stands for enzyme-linked immunosorbent assay.
Series [2] addresses T1, SHG-labeled wildtype NiV G ectodomain (Nipah virus, UniProt Q9IH62 71-602).
T1 sequence: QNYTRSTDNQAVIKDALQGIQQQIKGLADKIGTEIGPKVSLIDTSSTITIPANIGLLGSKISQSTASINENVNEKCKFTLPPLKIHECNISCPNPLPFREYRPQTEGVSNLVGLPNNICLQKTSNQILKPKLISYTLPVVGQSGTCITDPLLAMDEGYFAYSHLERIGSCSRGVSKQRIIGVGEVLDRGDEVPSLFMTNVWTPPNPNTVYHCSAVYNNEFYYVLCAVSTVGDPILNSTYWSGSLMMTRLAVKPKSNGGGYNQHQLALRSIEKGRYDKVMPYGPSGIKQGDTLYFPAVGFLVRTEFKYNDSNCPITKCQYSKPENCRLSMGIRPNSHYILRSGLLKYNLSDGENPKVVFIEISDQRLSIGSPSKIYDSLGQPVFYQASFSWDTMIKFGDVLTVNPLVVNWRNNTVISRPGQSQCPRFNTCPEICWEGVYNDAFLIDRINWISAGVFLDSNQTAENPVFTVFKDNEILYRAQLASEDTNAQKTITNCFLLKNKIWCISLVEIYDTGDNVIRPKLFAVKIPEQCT
Nature of the series: second harmonic generation (SHG). The note with it: both partners purified.

Series [3] concerns the molecule itself. Nature of the series: negative stain electron microscopy.

B1: ephrinB2-Fc (human ephrinB2 residues 1-229, Factor XA cleavage site, human IgG1 residues 100-330) (Fc fusion)
chain: IVLEPIYWNSSNSKFLPGQGLVLYPQIGDKLDIICPKVDSKTVGQYEYYKVYMVDKDQADRCTIKKENTPLLNCAKPDQDIKFTIKFQEFSPNLWGLEFQKNKDYYIISTSNGSLEGLDNQEGGVCQTRAMKILMKVGQDASSAGSTRNKDPTRRPELEAGTNGRSSTTSPFVKPNPGSSTDGNSAGHSGNNILGSEVALFA
notes: also called dimeric ephrinB2; dimeric receptor
With B1, binding in series [1] was put at a Kd of 0.088 nM. In series [2], the ΔSHG is -12.9%.
As to B2, in series [3], the “stoichiometry N” value came to 4.

B3: ephrinB2-229 (S-tagged monomeric ephrinB2 ectodomain, residues 25-229) (domain or fragment, human, UniProt P52799 25-229, looked up)
chain: SKSIVLEPIYWNSSNSKFLPGQGLVLYPQIGDKLDIICPKVDSKTVGQYEYYKVYMVDKDQADRCTIKKENTPLLNCAKPDQDIKFTIKFQEFSPNLWGLEFQKNKDYYIISTSNGSLEGLDNQEGGVCQTRAMKILMKVGQDASSAGSTRNKDPTRRPELEAGTNGRSSTTSPFVKPNPGSSTDGNSAGHSGNNILGSEVALFA
In turn, B3 yielded a Kd in series [1] of 33.2 nM.

B4: Stag-ephrinB2-167 (S-tagged monomeric ephrinB2 globular domain, residues 25-167) (domain or fragment, human, UniProt P52799 25-167, looked up)
chain: SKSIVLEPIYWNSSNSKFLPGQGLVLYPQIGDKLDIICPKVDSKTVGQYEYYKVYMVDKDQADRCTIKKENTPLLNCAKPDQDIKFTIKFQEFSPNLWGLEFQKNKDYYIISTSNGSLEGLDNQEGGVCQTRAMKILMKVGQD
B4 had a Kd in series [1] of 11.9 nM.

B5: ephrinB2-167 from His6-ephrinB2-167 with the His6-tag removed by enterokinase cleavage (domain or fragment, human, UniProt P52799 25-167, looked up)
chain: SKSIVLEPIYWNSSNSKFLPGQGLVLYPQIGDKLDIICPKVDSKTVGQYEYYKVYMVDKDQADRCTIKKENTPLLNCAKPDQDIKFTIKFQEFSPNLWGLEFQKNKDYYIISTSNGSLEGLDNQEGGVCQTRAMKILMKVGQD
notes: also called monomeric ephrinB2
Take B5: in series [2], the ΔSHG was -27.9%.
